The Human Domainome abundance scans (Beltran et al. 2025)
± gives the uncertainty stated by the source.

B1: Segment polarity protein dishevelled homolog DVL-3, residues 2 to 81; numbered along this chain, Q92997 (parent)
chain: GETKIIYHLDGQETPYLVKLPLPAERVTLADFKGVLQRPSYKFFFKSMDDDFGVVKEEISDDNAKLPCFNGRVVSWLVSA

Variants of: B1
Assay: abundance fitness (aPCA) (normalised: wild type 0, dead -1); higher = more abundant; growth selection in yeast, the domain comes from the species named
Conditions: Homo sapiens

| Variant | abundance fitness |
| --- | --- |
| GETKIIYHLDGQETPYLVKLPLPAERVTLADFKGVLQRPSYKFFFKSMDDDFMVVKEEISDDNAKLPCFNGRVVSWLVSA | -0.032 ± 0.069 |
| GETKIIYHLDGQETPYLVKLPLPAERVTLADFKGVLQRPSYKFFFKSMDDDFYVVKEEISDDNAKLPCFNGRVVSWLVSA | 0.223 ± 0.14 |
| GETKIIYHLDGQETPYLVKLPLPAERVTLADFKGVLQRPSYKFFFKSMDDDFKVVKEEISDDNAKLPCFNGRVVSWLVSA | 0.482 ± 0.052 |
| GETKIIYHLDGQETPYLVKLPLPAERVTLADFKGVLQRPSYKFFFKSMDDDFNVVKEEISDDNAKLPCFNGRVVSWLVSA | 0.563 ± 0.093 |
| GETKIIYHLDGQETPYLVKLPLPAERVTLADFKGVLQRPSYKFFFKSMDDDFEVVKEEISDDNAKLPCFNGRVVSWLVSA | 0.209 ± 0.051 |
| GETKIIYHLDGQETPYLVKLPLPAERVTLADFKGVLQRPSYKFFFKSMDDDFFVVKEEISDDNAKLPCFNGRVVSWLVSA | -0.362 ± 0.12 |
| GETKIIYHLDGQETPYLVKLPLPAERVTLADFKGVLQRPSYKFFFKSMDDDFPVVKEEISDDNAKLPCFNGRVVSWLVSA | -0.211 ± 0.071 |
| GETKIIYHLDGQETPYLVKLPLPAERVTLADFKGVLQRPSYKFFFKSMDDDFVVVKEEISDDNAKLPCFNGRVVSWLVSA | -0.005 ± 0.046 |
| GETKIIYHLDGQETPYLVKLPLPAERVTLADFKGVLQRPSYKFFFKSMDDDFTVVKEEISDDNAKLPCFNGRVVSWLVSA | 0.092 ± 0.058 |
| GETKIIYHLDGQETPYLVKLPLPAERVTLADFKGVLQRPSYKFFFKSMDDDFSVVKEEISDDNAKLPCFNGRVVSWLVSA | 0.153 ± 0.05 |
| GETKIIYHLDGQETPYLVKLPLPAERVTLADFKGVLQRPSYKFFFKSMDDDFIVVKEEISDDNAKLPCFNGRVVSWLVSA | -0.501 ± 0.19 |
| GETKIIYHLDGQETPYLVKLPLPAERVTLADFKGVLQRPSYKFFFKSMDDDFCVVKEEISDDNAKLPCFNGRVVSWLVSA | 0.2 ± 0.065 |
| GETKIIYHLDGQETPYLVKLPLPAERVTLADFKGVLQRPSYKFFFKSMDDDFQVVKEEISDDNAKLPCFNGRVVSWLVSA | 0.327 ± 0.055 |
| GETKIIYHLDGQETPYLVKLPLPAERVTLADFKGVLQRPSYKFFFKSMDDDFLVVKEEISDDNAKLPCFNGRVVSWLVSA | -0.321 ± 0.058 |
| GETKIIYHLDGQETPYLVKLPLPAERVTLADFKGVLQRPSYKFFFKSMDDDFWVVKEEISDDNAKLPCFNGRVVSWLVSA | -0.458 ± 0.085 |
| GETKIIYHLDGQETPYLVKLPLPAERVTLADFKGVLQRPSYKFFFKSMDDDFAVVKEEISDDNAKLPCFNGRVVSWLVSA | 0.096 ± 0.042 |
| GETKIIYHLDGQETPYLVKLPLPAERVTLADFKGVLQRPSYKFFFKSMDDDFHVVKEEISDDNAKLPCFNGRVVSWLVSA | 0.358 ± 0.1 |
| GETKIIYHLDGQETPYLVKLPLPAERVTLADFKGVLQRPSYKFFFKSMDDDFRVVKEEISDDNAKLPCFNGRVVSWLVSA | 0.382 ± 0.036 |
| GETKIIYHLDGQETPYLVKLPLPAERVTLADFKGVLQRPSYKFFFKSMDDYFGVVKEEISDDNAKLPCFNGRVVSWLVSA | -0.224 ± 0.097 |
| GETKIIYHLDGQETPYLVKLPLPAERVTLADFKGVLQRPSYKFFFKSMDDVFGVVKEEISDDNAKLPCFNGRVVSWLVSA | -0.113 ± 0.077 |
| GETKIIYHLDGQETPYLVKLPLPAERVTLADFKGVLQRPSYKFFFKSMDDCFGVVKEEISDDNAKLPCFNGRVVSWLVSA | -0.191 ± 0.11 |
| GETKIIYHLDGQETPYLVKLPLPAERVTLADFKGVLQRPSYKFFFKSMDDHFGVVKEEISDDNAKLPCFNGRVVSWLVSA | 0.058 ± 0.079 |
| GETKIIYHLDGQETPYLVKLPLPAERVTLADFKGVLQRPSYKFFFKSMDDNFGVVKEEISDDNAKLPCFNGRVVSWLVSA | 0.25 ± 0.063 |

| Variant | abundance fitness |
| --- | --- |
| GETKIIYHLDGQETPYLVKLPLPAERVTLADFKGVLQRPSYKFFFKSMDDAFGVVKEEISDDNAKLPCFNGRVVSWLVSA | 0.022 ± 0.07 |
| GETKIIYHLDGQETPYLVKLPLPAERVTLADFKGVLQRPSYKFFFKSMDDFFGVVKEEISDDNAKLPCFNGRVVSWLVSA | -0.198 ± 0.11 |
| GETKIIYHLDGQETPYLVKLPLPAERVTLADFKGVLQRPSYKFFFKSMDDGFGVVKEEISDDNAKLPCFNGRVVSWLVSA | -0.004 ± 0.079 |
| GETKIIYHLDGQETPYLVKLPLPAERVTLADFKGVLQRPSYKFFFKSMDDRFGVVKEEISDDNAKLPCFNGRVVSWLVSA | 0.224 ± 0.059 |
| GETKIIYHLDGQETPYLVKLPLPAERVTLADFKGVLQRPSYKFFFKSMDDPFGVVKEEISDDNAKLPCFNGRVVSWLVSA | 0.057 ± 0.073 |
| GETKIIYHLDGQETPYLVKLPLPAERVTLADFKGVLQRPSYKFFFKSMDDKFGVVKEEISDDNAKLPCFNGRVVSWLVSA | 0.197 ± 0.079 |
| GETKIIYHLDGQETPYLVKLPLPAERVTLADFKGVLQRPSYKFFFKSMDDTFGVVKEEISDDNAKLPCFNGRVVSWLVSA | 0.166 ± 0.067 |
| GETKIIYHLDGQETPYLVKLPLPAERVTLADFKGVLQRPSYKFFFKSMDDWFGVVKEEISDDNAKLPCFNGRVVSWLVSA | -0.824 ± 0.24 |
| GETKIIYHLDGQETPYLVKLPLPAERVTLADFKGVLQRPSYKFFFKSMDDMFGVVKEEISDDNAKLPCFNGRVVSWLVSA | -0.279 ± 0.12 |
| GETKIIYHLDGQETPYLVKLPLPAERVTLADFKGVLQRPSYKFFFKSMDDIFGVVKEEISDDNAKLPCFNGRVVSWLVSA | -0.202 ± 0.094 |
| GETKIIYHLDGQETPYLVKLPLPAERVTLADFKGVLQRPSYKFFFKSMDDQFGVVKEEISDDNAKLPCFNGRVVSWLVSA | 0.158 ± 0.084 |
| GETKIIYHLDGQETPYLVKLPLPAERVTLADFKGVLQRPSYKFFFKSMDDLFGVVKEEISDDNAKLPCFNGRVVSWLVSA | -0.32 ± 0.077 |
| GETKIIYHLDGQETPYLVKLPLPAERVTLADFKGVLQRPSYKFFFKSMDDSFGVVKEEISDDNAKLPCFNGRVVSWLVSA | 0.072 ± 0.056 |
| GETKIIYHLDGQETPYLVKLPLPAERVTLADFKGVLQRPSYKFFFKSMDDEFGVVKEEISDDNAKLPCFNGRVVSWLVSA | -0.074 ± 0.11 |
| GETKIIYHLDGQETPYLVKLPLPAERVTLADFKGVLQRPSYKFFFKSMDYDFGVVKEEISDDNAKLPCFNGRVVSWLVSA | -0.287 ± 0.095 |
| GETKIIYHLDGQETPYLVKLPLPAERVTLADFKGVLQRPSYKFFFKSMDSDFGVVKEEISDDNAKLPCFNGRVVSWLVSA | 0.089 ± 0.048 |
| GETKIIYHLDGQETPYLVKLPLPAERVTLADFKGVLQRPSYKFFFKSMDNDFGVVKEEISDDNAKLPCFNGRVVSWLVSA | -0.079 ± 0.078 |
| GETKIIYHLDGQETPYLVKLPLPAERVTLADFKGVLQRPSYKFFFKSMDWDFGVVKEEISDDNAKLPCFNGRVVSWLVSA | -0.445 ± 0.15 |
| GETKIIYHLDGQETPYLVKLPLPAERVTLADFKGVLQRPSYKFFFKSMDQDFGVVKEEISDDNAKLPCFNGRVVSWLVSA | -0.041 ± 0.078 |
| GETKIIYHLDGQETPYLVKLPLPAERVTLADFKGVLQRPSYKFFFKSMDMDFGVVKEEISDDNAKLPCFNGRVVSWLVSA | -0.329 ± 0.1 |
| GETKIIYHLDGQETPYLVKLPLPAERVTLADFKGVLQRPSYKFFFKSMDPDFGVVKEEISDDNAKLPCFNGRVVSWLVSA | -0.016 ± 0.06 |
| GETKIIYHLDGQETPYLVKLPLPAERVTLADFKGVLQRPSYKFFFKSMDLDFGVVKEEISDDNAKLPCFNGRVVSWLVSA | -0.475 ± 0.069 |
| GETKIIYHLDGQETPYLVKLPLPAERVTLADFKGVLQRPSYKFFFKSMDKDFGVVKEEISDDNAKLPCFNGRVVSWLVSA | 0.131 ± 0.083 |

| Variant | abundance fitness |
| --- | --- |
| GETKIIYHLDGQETPYLVKLPLPAERVTLADFKGVLQRPSYKFFFKSMDTDFGVVKEEISDDNAKLPCFNGRVVSWLVSA | -0.074 ± 0.062 |
| GETKIIYHLDGQETPYLVKLPLPAERVTLADFKGVLQRPSYKFFFKSMDDDIGVVKEEISDDNAKLPCFNGRVVSWLVSA | 0.036 ± 0.077 |
| GETKIIYHLDGQETPYLVKLPLPAERVTLADFKGVLQRPSYKFFFKSMDDDVGVVKEEISDDNAKLPCFNGRVVSWLVSA | 0.048 ± 0.061 |
| GETKIIYHLDGQETPYLVKLPLPAERVTLADFKGVLQRPSYKFFFKSMDDDLGVVKEEISDDNAKLPCFNGRVVSWLVSA | 0.249 ± 0.042 |
| GETKIIYHLDGQETPYLVKLPLPAERVTLADFKGVLQRPSYKFFFKSMDDDMGVVKEEISDDNAKLPCFNGRVVSWLVSA | 0.156 ± 0.056 |
| GETKIIYHLDGQETPYLVKLPLPAERVTLADFKGVLQRPSYKFFFKSMDDDRGVVKEEISDDNAKLPCFNGRVVSWLVSA | 0.618 ± 0.048 |
| GETKIIYHLDGQETPYLVKLPLPAERVTLADFKGVLQRPSYKFFFKSMDDDTGVVKEEISDDNAKLPCFNGRVVSWLVSA | 0.183 ± 0.048 |
| GETKIIYHLDGQETPYLVKLPLPAERVTLADFKGVLQRPSYKFFFKSMDDDGGVVKEEISDDNAKLPCFNGRVVSWLVSA | 0.781 ± 0.057 |
| GETKIIYHLDGQETPYLVKLPLPAERVTLADFKGVLQRPSYKFFFKSMDDDHGVVKEEISDDNAKLPCFNGRVVSWLVSA | 0.32 ± 0.065 |
| GETKIIYHLDGQETPYLVKLPLPAERVTLADFKGVLQRPSYKFFFKSMDDDAGVVKEEISDDNAKLPCFNGRVVSWLVSA | 0.263 ± 0.056 |
| GETKIIYHLDGQETPYLVKLPLPAERVTLADFKGVLQRPSYKFFFKSMDDDQGVVKEEISDDNAKLPCFNGRVVSWLVSA | 0.268 ± 0.057 |
| GETKIIYHLDGQETPYLVKLPLPAERVTLADFKGVLQRPSYKFFFKSMDDDSGVVKEEISDDNAKLPCFNGRVVSWLVSA | 0.37 ± 0.045 |
| GETKIIYHLDGQETPYLVKLPLPAERVTLADFKGVLQRPSYKFFFKSMDDDEGVVKEEISDDNAKLPCFNGRVVSWLVSA | 0.335 ± 0.071 |
| GETKIIYHLDGQETPYLVKLPLPAERVTLADFKGVLQRPSYKFFFKSMDDDYGVVKEEISDDNAKLPCFNGRVVSWLVSA | -0.063 ± 0.082 |
| GETKIIYHLDGQETPYLVKLPLPAERVTLADFKGVLQRPSYKFFFKSMDDDCGVVKEEISDDNAKLPCFNGRVVSWLVSA | 0.351 ± 0.086 |
| GETKIIYHLDGQETPYLVKLPLPAERVTLADFKGVLQRPSYKFFFKSMDDDKGVVKEEISDDNAKLPCFNGRVVSWLVSA | 0.604 ± 0.051 |
| GETKIIYHLDGQETPYLVKLPLPAERVTLADFKGVLQRPSYKFFFKSMDDDFGDVKEEISDDNAKLPCFNGRVVSWLVSA | 0.168 ± 0.08 |
| GETKIIYHLDGQETPYLVKLPLPAERVTLADFKGVLQRPSYKFFFKSMDDDFGCVKEEISDDNAKLPCFNGRVVSWLVSA | 0.01 ± 0.075 |
| GETKIIYHLDGQETPYLVKLPLPAERVTLADFKGVLQRPSYKFFFKSMDDDFGEVKEEISDDNAKLPCFNGRVVSWLVSA | 0.192 ± 0.052 |
| GETKIIYHLDGQETPYLVKLPLPAERVTLADFKGVLQRPSYKFFFKSMDDDFGAVKEEISDDNAKLPCFNGRVVSWLVSA | 0.005 ± 0.056 |
| GETKIIYHLDGQETPYLVKLPLPAERVTLADFKGVLQRPSYKFFFKSMDDDFGGVKEEISDDNAKLPCFNGRVVSWLVSA | -0.127 ± 0.044 |
| GETKIIYHLDGQETPYLVKLPLPAERVTLADFKGVLQRPSYKFFFKSMDDDFGFVKEEISDDNAKLPCFNGRVVSWLVSA | 0.136 ± 0.076 |
| GETKIIYHLDGQETPYLVKLPLPAERVTLADFKGVLQRPSYKFFFKSMDDDFGHVKEEISDDNAKLPCFNGRVVSWLVSA | 0.002 ± 0.12 |
